From patent publication US20080015137A1 (University of Texas, published 2008)
Changes are numbered by the printed parent chain. Numbers in names are those of the source. No end group written: not given here.

B1: MBP-M9NLS(257-305) wild type (other, human, UniProt P09651-2 257-305, looked up, not shown: large carriers)
chain: GGSYNDFGNYNNQSSNFGPMKGGNFGGRSSGPYGGGGQYFAKPRNQGGY
notes: MBP fusion of the NLS peptide; also called MBP-hnRNP A1-NLS; wildtype hnRNP A1-NLS
B2: MBP-hnRNP M(41-70) wild type (other, human, UniProt P52272 41-70, looked up, not shown: large carriers)
chain: ERPAQNEKRKEKNIKRGGNRFEPYANPTKR
modifications: also: MBP fusion partner, not in chain
notes: range 41-70; also called MBP-hnRNP M-NLS; hnRNP M-NLS
B3: MBP-hnRNP M(41-70) K50A/E51A/K52A/N53A (other, not shown: large carriers; small tags and cut ends)
chain: ERPAQNEKRAAAAIKRGGNRFEPYANPTKR
modifications: also: MBP fusion partner, not in chain
notes: also called quadruple 50KEKN53/AAAA hnRNP M mutant
B4: MBP-hnRNP M(41-70) K50A/E51A/K52A/N53A/I54A/K55A/R56A (other, not shown: large carriers; small tags and cut ends)
chain: B3 chain with I14A, K15A, R16A
modifications: also: MBP fusion partner, not in chain
notes: also called all seven residues of 50KEKNIKR56 mutated to alanines

Tests used:
[1] = target: T1, Karyopherin beta2 (Kapβ2), full length, wild type (human, UniProt Q92973-2 1-890); assay: ITC; MBP-M9NLS(257-305) titrated into full length Kapβ2
T1 construct: mature; Expressed as a GST fusion from pGEX-Tev and purified; Also used here for the Kapβ2 added in the GST pull-downs; also called Transportin
T1 sequence (looked up): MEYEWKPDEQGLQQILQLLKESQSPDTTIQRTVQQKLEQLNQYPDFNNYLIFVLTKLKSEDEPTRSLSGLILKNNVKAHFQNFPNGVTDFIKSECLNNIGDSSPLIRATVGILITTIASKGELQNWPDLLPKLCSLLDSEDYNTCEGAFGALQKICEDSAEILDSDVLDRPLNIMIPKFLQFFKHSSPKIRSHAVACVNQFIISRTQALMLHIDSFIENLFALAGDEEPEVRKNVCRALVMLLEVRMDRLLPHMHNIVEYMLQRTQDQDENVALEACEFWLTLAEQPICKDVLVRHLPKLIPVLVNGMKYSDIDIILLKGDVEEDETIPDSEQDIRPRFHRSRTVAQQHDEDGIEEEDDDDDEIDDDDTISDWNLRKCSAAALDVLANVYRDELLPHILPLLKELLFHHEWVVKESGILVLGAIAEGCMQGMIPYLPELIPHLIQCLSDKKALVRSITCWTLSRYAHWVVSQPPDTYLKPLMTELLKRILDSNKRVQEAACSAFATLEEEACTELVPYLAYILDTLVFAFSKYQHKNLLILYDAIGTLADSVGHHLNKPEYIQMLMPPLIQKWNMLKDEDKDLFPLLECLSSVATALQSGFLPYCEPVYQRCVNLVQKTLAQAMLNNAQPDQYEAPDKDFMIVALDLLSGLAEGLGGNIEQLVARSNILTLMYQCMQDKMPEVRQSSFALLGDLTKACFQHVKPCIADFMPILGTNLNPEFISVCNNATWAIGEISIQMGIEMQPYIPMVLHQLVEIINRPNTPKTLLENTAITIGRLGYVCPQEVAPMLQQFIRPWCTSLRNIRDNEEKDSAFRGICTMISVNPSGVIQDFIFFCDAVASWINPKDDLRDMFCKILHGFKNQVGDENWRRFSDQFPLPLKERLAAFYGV
Method: Substrate residues that make two or more sidechain contacts with Kapβ2 (F273, F281, R284, P288 and Y289) were systematically mutated to alanines.
The ITC studies used a MicroCal Omega VP-ITC calorimeter (MicroCal Inc., Northampton, Mass.). Proteins were dialyzed against buffer containing 20 mM Tris pH 7.5, 100 mM NaCl and 2 mM P-mercaptoethanol. […] Most ITC studies were done at 20° C. with 35 rounds of about 8 μl injections. […] Data was plotted and analyzed using MicroCal Origin software version 7.0, with a single binding site model.

[2] = target: T1, Karyopherin beta2 (Kapβ2), full length, …; assay: competition ITC (control); 154 µM MBP-hnRNP A1-NLS titrated into 12 µM Kapβ2 with MBP-hnRNP A1-NLS R284A/P288A/Y289A as displacement ligand
[3] = target: T1, Karyopherin beta2 (Kapβ2), full length, …; assay: ITC; MBP-hnRNP M(41-70) titrated into full-length Kapβ2
Method: (§1) Quantitation of binding affinity with Isothermal Titration Calorimetry. Binding affinities for wild type and mutant MBP-hnRNP M-NLS were determined using Isothermal titration calorimetry (ITC). The experiments were performed using a MicroCal Omega VP-ITC calorimeter (MicroCal Inc., Northampton, Mass.). MBP-NLS proteins were dialyzed against buffer containing 20 mM Tris pH 7.5, 100 mM NaCl and 2 mM β-mercaptoethanol. […] All ITC experiments were done at 20° C. with 35 rounds of 8 μl injections. Data were plotted and analyzed using the single binding site model of MicroCal Origin software version 7.0.

[4] = target: T1, Karyopherin beta2 (Kapβ2), full length, …; assay: ITC; MBP-hnRNP M(41-70) mutant titrated into full-length Kapβ2
Method: as §1

[5] = target: T1, Karyopherin beta2 (Kapβ2), full length, …; assay: ITC; MBP-hnRNP M(41-70) mutant titrated into full-length Kapβ2; unit cell prints only n
Method: as §1

[6] = target: T1, Karyopherin beta2 (Kapβ2), full length, …; assay: competition ITC (107 pM versus 20 nM for hnRNP A1-NLS)
[7] = target: T1, Karyopherin beta2 (Kapβ2), full length, …; assay: competition ITC; repeat with 20 µM MBP-hnRNP A1-NLS R284A/P288A/Y289A as displacement ligand
[8] = target: T1, Karyopherin beta2 (Kapβ2), full length, …; assay: competition ITC; 108 µM MBP-M9M titrated into 12 µM Kapβ2 with 18 µM MBP-hnRNP A1-NLS R284A/P288A/Y289A as displacement ligand

Binder | Kd [4] | further results
B1 | – | Kd [1]: 42 nM; Kd [2]: 20 nM
B2 | – | Kd [3]: 10 nM
ERPAQNEKRKEKNIKRGGNRAEPYANPTKR (other, not shown: large carriers; small tags and cut ends, also: MBP fusion partner, not in chain) [MBP-hnRNP M(41-70) F61A] | 11.2 nM | –
ERPAQNEKRKEKNIKRGGNRAEAAANPTKR (other, not shown: large carriers; small tags and cut ends, also: MBP fusion partner, not in chain) [MBP-hnRNP M(41-70) F61A/P63A/Y64A] | 8600 nM | –
ERPAQNEKRKEKNAKRGGNRFEPYANPTKR (other, not shown: large carriers; small tags and cut ends, also: MBP fusion partner, not in chain) [MBP-hnRNP M(41-70) I54A] | 8.8 nM | –
ERPAQNEKRAEKNIKRGGNRFEPYANPTKR (other, not shown: large carriers; small tags and cut ends, also: MBP fusion partner, not in chain) [MBP-hnRNP M(41-70) K50A] | 16.4 nM | –
B3 | 22.3 nM | –
B4 | 1200 nM | –
ERPAQNEKRKEANIKRGGNRFEPYANPTKR (other, not shown: large carriers; small tags and cut ends, also: MBP fusion partner, not in chain) [MBP-hnRNP M(41-70) K52A] | 14.6 nM | –
ERPAQNEKRKEKNIARGGNRFEPYANPTKR (other, not shown: large carriers; small tags and cut ends, also: MBP fusion partner, not in chain) [MBP-hnRNP M(41-70) K55A] | 7.6 nM | –
ERPAQNEKRKEKAIKRGGNRFEPYANPTKR (other, not shown: large carriers; small tags and cut ends, also: MBP fusion partner, not in chain) [MBP-hnRNP M(41-70) N53A] | 17.1 nM | –
ERPAQNEKRKEKNIKRGGNRFEAAANPTKR (other, not shown: large carriers; small tags and cut ends, also: MBP fusion partner, not in chain) [MBP-hnRNP M(41-70) P63A/Y64A] | 4500 nM | –
ERPAQNEKRKEKNIKRGGNRFEPYANATKR (other, not shown: large carriers; small tags and cut ends, also: MBP fusion partner, not in chain) [MBP-hnRNP M(41-70) P67A] | – | Kd [5]: 8.7 nM
ERPAQNEKRKEKNIKAGGNRFEPYANPTKR (other, not shown: large carriers; small tags and cut ends, also: MBP fusion partner, not in chain) [MBP-hnRNP M(41-70) R56A] | 13.9 nM | –
GPGYSGGSRGYGSGGQGYGNQGSGYGGSFEPYANPTKR (designed binder) [MBP-M9M] | – | fold tighter binding against natural NLS (hnRNP A1-NLS) [6]: 200 fold; Kd [7]: 0.111 nM; Kd [8]: 0.107 nM
